In patent publication US20180162911A1, “POLYPEPTIDES FOR THE DIAGNOSIS AND THE TREATMENT OF C3 NEF ASSOCIATED C3 GLOMERULOPATHY” (INSERM (INSTITUT NATIONAL DE LA SANTÉ ET DE LA RECHERCHE …, priority 2015, published 2018):
Where no end group is shown, it is not given here.

Experiments:
[1] = tested on: C3NeF (patient IgG); experiment: Peptide inhibition assay with patients' IgG: reduction of C3NeF stabilization of the C3bBb convertase; assay type: biochemical, human; conditions: for decrease of % stabilization of P1 IgG: 100 μg IgG from P1 (stabilizes only C3bBb) taken as 100%, peptides pre-incubated overnight, n=3 experiments
Protocol: (§1) The ability of patient' IgG to stabilize a pre-formed membrane bound C3bBb was measured with EAC3bBb generated by the incubation of EC3b with appropriate concentration of FB and FD. Briefly, IgG was partially purified from plasma by chromatography on DEAE-cellulose and subsequently quantified by nephelometry. DEAE eluate contains IgG, and also low levels of contaminants such as Properdin and Factor H. Sheep erythrocytes EAC34b were incubated in presence of FB (Complement Technology) and FD (Sigma) to form the alternative convertase C3bBb. The convertase was allowed to decay in EDTA-containing buffer in presence of 400 μg of patient' IgG. Lysis was developed by the addition of rat serum. C3NeF stabilization was measured as the percentage of the residual convertase compared to the reference control without decay. The cut-off for positive C3NeF was determined as the mean+2 sd of the C3NeF stabilization of IgG from 30 healthy individuals.
The test was performed as described earlier, but 80 μg of peptides was utilized and the incubation of IgG and peptides was made at 4° C. overnight. IgG amount was determined depending on their stabilization capacity, in order to obtain 50% of residual convertase after the decay.
Membrane-bound convertase was formed as in the C3bBb assay. During the convertase decay step, cells were incubated with a fixed dose of Peptides (80 μg) and patient' IgG (amount determined by the concentration of IgG leading to 50% of residual convertase). The concentration of IgG applied in the test was chosen depending on their C3NeF activity.

[2] = molecular target: T1, Properdin (Homo sapiens, UniProt P27918); experiment: Peptide inhibition assay: inhibition of the stabilization of the C3 convertase mediated by Properdin (haemolytic, membrane-bound C3bBb); assay type: biochemical; conditions: for % inhibition of the Properdin stabilization capacity: 50 ng Properdin pre-incubated with 10 μg peptide 2 h at room temperature, n=2 experiments; for dose dependence of inhibition of Properdin stabilization: different doses of peptides
T1 construct: purchased Calbiochem
T1 sequence (P27918 28-469): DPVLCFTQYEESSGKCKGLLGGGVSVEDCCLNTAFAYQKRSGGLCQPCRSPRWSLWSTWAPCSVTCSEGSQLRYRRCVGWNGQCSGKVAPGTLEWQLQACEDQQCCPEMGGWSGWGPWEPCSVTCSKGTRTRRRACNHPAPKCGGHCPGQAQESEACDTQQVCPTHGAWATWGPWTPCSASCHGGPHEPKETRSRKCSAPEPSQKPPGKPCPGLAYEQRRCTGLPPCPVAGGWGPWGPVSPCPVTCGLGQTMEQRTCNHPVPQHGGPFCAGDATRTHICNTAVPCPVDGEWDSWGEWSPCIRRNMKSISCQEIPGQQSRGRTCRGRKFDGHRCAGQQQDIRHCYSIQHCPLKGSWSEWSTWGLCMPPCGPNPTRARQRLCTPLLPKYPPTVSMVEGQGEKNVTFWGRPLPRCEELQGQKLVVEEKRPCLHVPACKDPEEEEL
Protocol: as §1
Different mixes of 50 ng of Properdin and 10 μg of peptides were incubated at room temperature for 2 hours with gentle shaking in EDTA-containing buffer. As a control, Properdin was incubated with the peptide's dilution buffer. Membrane-bound convertase was formed as in the C3bBb assay. During the convertase decay step, cells were incubated with the mix of FP and peptides. FP amount was chosen in order to obtain 50% of residual convertase after the decay. Residual convertase was measured and data were expressed as percentage of inhibition (percentage of residual convertase compared to the control without peptide).

[3] = molecular target: T1, Properdin; experiment: ELISA, biotinylated peptides coated, binding of Properdin
Protocol: To investigate whether Properdin binds the peptides biotinylated peptides was coated onto ELISA plates and increased among of Properdin were incubated before adding anti human Properdin.

[4] = tested on: C3NeF (patient IgG); experiment: Peptide inhibition assay with patients' IgG: reduction of C3NeF stabilization of the C3bBb convertase; assay type: biochemical, human; conditions: P1 IgG
[5] = molecular target: T2, membrane bound C3bBb convertase (Homo sapiens, UniProt P00751+P01024); experiment: C3b erythrocyte based C3bBb convertase stabilization / competition assay; assay type: biochemical
T2 construct: EAC3bBb generated by the incubation of EC3b with appropriate concentration of FB and FD; incubated in presence of FB (Complement Technology) and FD (Sigma) to form the alternative convertase C3bBb; purchased Complement Technology (FB); Sigma (FD); host or cells: sheep erythrocytes coated with C3b
T2 sequence (P01024 23-667 limits assumed): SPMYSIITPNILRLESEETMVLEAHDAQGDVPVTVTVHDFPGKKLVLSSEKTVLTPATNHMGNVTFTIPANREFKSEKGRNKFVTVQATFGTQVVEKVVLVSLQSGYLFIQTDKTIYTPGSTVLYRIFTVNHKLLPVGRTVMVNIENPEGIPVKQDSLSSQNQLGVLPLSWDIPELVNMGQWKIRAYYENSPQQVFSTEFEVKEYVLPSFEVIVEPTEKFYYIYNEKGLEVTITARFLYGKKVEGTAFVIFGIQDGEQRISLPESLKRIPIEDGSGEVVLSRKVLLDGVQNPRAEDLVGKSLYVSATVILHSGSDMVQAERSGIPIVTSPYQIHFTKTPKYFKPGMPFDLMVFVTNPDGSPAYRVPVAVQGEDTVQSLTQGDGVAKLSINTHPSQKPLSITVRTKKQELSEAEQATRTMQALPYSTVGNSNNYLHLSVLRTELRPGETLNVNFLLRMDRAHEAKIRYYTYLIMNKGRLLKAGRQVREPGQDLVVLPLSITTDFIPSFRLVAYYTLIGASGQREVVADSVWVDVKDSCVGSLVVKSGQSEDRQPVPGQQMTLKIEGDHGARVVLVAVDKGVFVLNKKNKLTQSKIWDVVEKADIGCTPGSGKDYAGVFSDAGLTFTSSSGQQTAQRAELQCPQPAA
T2 sequence (P01024 749-1663 limits assumed): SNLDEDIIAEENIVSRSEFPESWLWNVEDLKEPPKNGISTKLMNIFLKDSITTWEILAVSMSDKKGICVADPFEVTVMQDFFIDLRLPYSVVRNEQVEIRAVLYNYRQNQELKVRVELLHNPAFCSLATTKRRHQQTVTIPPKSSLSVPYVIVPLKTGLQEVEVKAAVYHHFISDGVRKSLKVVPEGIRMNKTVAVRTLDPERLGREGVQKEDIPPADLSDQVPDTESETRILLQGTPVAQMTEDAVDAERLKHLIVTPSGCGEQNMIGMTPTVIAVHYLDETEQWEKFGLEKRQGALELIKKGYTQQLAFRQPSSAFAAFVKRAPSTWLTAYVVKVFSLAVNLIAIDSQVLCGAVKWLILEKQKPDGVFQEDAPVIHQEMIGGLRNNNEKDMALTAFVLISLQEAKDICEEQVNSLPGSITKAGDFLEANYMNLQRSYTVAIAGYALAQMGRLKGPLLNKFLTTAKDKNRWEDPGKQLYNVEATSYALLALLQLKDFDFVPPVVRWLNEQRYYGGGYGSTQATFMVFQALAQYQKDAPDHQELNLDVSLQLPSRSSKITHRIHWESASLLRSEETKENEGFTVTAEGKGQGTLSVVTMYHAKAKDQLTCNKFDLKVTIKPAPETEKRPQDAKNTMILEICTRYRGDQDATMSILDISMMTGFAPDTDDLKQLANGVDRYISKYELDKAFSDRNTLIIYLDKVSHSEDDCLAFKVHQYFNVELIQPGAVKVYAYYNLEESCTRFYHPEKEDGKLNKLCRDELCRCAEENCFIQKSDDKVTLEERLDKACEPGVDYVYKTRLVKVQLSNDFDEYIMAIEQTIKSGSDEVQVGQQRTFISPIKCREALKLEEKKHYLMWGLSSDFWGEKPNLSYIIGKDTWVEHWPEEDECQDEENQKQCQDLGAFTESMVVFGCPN
T2 sequence (P00751 260-764 limits assumed): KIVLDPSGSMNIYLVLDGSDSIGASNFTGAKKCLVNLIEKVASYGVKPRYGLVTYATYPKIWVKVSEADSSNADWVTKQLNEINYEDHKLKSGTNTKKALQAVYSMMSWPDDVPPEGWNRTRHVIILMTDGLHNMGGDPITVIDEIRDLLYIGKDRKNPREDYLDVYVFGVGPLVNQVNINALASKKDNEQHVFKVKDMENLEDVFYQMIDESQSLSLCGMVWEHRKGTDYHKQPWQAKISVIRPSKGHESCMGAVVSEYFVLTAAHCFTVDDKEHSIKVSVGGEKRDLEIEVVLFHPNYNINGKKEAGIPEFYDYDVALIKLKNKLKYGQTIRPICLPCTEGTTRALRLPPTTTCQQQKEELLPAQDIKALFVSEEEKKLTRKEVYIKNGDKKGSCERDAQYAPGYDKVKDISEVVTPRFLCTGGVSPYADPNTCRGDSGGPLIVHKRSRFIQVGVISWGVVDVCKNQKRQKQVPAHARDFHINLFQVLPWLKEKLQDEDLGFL
Protocol: as §1
Membrane-bound convertase was formed as in the C3bBb assay. During the convertase decay step, cells were incubated with FP alone at a fixed dose (800 ng); 4 different doses of IgG alone and a mix of both IgG and FP at the same concentration. […]
[…] Residual convertase was measured and data were expressed as percentage of inhibition (percentage of residual convertase compared to the control without peptide).

[6] = molecular target: C3bBbP Properdin-stabilized alternative pathway C3 convertase (UniProt P01024); experiment: SPR (ProteOn XPR36), C3b on GLC chip, convertase formed with FB, FD and FP, control IgG injected
Sequence of C3bBbP Properdin-stabilized alternative pathway C3 convertase (P01024 23-1663 limits assumed, chain 1 of 3): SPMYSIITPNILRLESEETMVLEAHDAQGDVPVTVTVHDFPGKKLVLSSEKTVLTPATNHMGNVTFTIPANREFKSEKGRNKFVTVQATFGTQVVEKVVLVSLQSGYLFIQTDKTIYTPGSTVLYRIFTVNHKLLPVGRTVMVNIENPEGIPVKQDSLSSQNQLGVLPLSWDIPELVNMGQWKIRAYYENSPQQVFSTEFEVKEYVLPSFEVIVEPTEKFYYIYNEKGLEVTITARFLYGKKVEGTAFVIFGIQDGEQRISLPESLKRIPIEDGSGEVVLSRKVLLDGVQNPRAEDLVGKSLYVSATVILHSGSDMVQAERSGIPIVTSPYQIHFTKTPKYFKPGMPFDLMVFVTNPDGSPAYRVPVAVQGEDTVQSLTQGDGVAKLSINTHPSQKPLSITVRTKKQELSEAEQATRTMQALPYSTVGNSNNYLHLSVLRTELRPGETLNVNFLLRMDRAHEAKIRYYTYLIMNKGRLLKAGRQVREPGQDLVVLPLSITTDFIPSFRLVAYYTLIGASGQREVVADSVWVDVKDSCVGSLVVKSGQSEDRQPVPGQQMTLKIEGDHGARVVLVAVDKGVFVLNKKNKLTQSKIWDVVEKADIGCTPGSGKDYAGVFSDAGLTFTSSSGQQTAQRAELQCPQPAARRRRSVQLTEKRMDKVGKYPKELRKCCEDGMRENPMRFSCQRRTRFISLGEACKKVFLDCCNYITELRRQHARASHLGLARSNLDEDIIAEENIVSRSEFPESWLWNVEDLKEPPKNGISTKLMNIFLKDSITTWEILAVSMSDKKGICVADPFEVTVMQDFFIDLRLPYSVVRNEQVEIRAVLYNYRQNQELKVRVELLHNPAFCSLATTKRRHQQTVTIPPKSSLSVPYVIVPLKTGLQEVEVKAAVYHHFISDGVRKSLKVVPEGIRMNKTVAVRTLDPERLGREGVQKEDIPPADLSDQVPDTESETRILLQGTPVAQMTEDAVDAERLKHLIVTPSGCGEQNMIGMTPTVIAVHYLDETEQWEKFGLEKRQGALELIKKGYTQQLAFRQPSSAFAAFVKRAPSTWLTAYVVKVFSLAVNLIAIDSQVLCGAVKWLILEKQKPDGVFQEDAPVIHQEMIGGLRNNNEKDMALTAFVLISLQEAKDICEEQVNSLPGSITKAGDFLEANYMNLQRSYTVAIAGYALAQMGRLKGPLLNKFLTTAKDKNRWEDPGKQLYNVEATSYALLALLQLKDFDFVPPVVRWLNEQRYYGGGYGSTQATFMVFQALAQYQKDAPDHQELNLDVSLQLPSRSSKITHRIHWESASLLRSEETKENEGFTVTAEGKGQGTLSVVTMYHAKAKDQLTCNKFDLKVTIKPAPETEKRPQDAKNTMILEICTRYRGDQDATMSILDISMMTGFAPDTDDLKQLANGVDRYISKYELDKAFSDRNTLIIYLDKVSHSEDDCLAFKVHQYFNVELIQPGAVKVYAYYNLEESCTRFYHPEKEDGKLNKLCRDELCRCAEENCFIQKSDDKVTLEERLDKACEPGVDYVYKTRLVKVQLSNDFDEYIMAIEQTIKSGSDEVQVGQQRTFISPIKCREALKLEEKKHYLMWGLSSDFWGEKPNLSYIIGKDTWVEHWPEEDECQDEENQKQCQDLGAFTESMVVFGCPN
Sequence of C3bBbP Properdin-stabilized alternative pathway C3 convertase (P00751 260-764 limits assumed, chain 2 of 3, further chain): as the sequence (P00751 260-764 limits assumed) above
Sequence of C3bBbP Properdin-stabilized alternative pathway C3 convertase (P27918 28-469 limits assumed, chain 3 of 3, further chain): as the sequence (P27918 28-469) above

[7] = molecular target: C3bBb alternative pathway C3 convertase (UniProt P01024); experiment: SPR (ProteOn XPR36), C3b on GLC chip, convertase formed with FB and FD, control IgG injected
Sequence of C3bBb alternative pathway C3 convertase (P01024 23-667 limits assumed, form in doubt, chain 1 of 3): as the sequence (P01024 23-667 limits assumed) above
Sequence of C3bBb alternative pathway C3 convertase (P01024 749-1663 limits assumed, form in doubt, chain 2 of 3): as the sequence (P01024 749-1663 limits assumed) above
Sequence of C3bBb alternative pathway C3 convertase (P00751 260-764 limits assumed, form in doubt, chain 3 of 3, further chain): as the sequence (P00751 260-764 limits assumed) above

[8] = molecular target: Properdin enhancer C3NeF (4 patients' Ig positive in both tests, Example 2); experiment: cell-based or functional assay
[9] = molecular target: Properdin like C3NeF (3 patients' Ig positive for the C3bBb and negative for the C3bBbP test, Example 2); experiment: cell-based or functional assay
[10] = molecular target: Properdin (human, UniProt P27918 28-469); experiment: cell-based or functional assay
Sequence of Properdin (human, UniProt P27918 28-469) (P27918 28-469 limits assumed): as the sequence (P27918 28-469) above

[11] = molecular target: 3 C3NeF samples positive in both the C3bBb and the C3bBbP tests (Example 1); experiment: cell-based or functional assay
[12] = molecular target: 3 C3NeF samples positive for the C3bBb and negative for the C3bBbP test (Example 1); experiment: cell-based or functional assay
[13] = in presence of Properdin_enhancer C3NeF
[14] = in presence of Properdin_like C3NeF

## G-EDEEPWEQITVV YPKIWV (GEDEEPWEQITVVYPKIWV; Synthetic pep2) [peptide 2, 3 parts of C3b and one part of the vWFA domain of Bb]
[1]
  decrease of % stabilization of P1 IgG: remained in the same range
[2]
  % inhibition of the Properdin stabilization capacity: no effect

## G-EERLDKACENNDSIGASNFTG (GEERLDKACENNDSIGASNFTG; Synthetic pep3) [peptide 3, residues of C3b and Bb, left side of the C3 convertase]
[1]
  decrease of % stabilization of P1 IgG: remained in the same range
[2]
  % inhibition of the Properdin stabilization capacity: no effect

## G-QDEENQKQCQDLGAFTESMVVFNIENLQKTVWD (GQDEENQKQCQDLGAFTESMVVFNIENLQKTVWD; N-terminal G; Synthetic pep1) [peptide 1, 22 residues of C3b (1616-1637) and 11 residues of Bb (308-318)]
[3]
  capacity of peptides to bind Properdin: binds
[1]
  decrease of % stabilization of P1 IgG: 40%
[1]; 3 C3NeF samples positive for the C3bBb and negative for the C3bBbP test
  C3NeF stabilization diminished: 20-40%
[1]; 3 C3NeF samples positive in both tests
  C3NeF stabilization diminished: 20-70%
[1]; [13]
  percentage of inhibition vs control: No significant difference
[1]; [14]
  percentage of inhibition vs control: significantly higher
[2]
  dose dependence of inhibition of Properdin stabilization: dose-dependent
[4]
  dose dependence of inhibition of IgG stabilization: dose dependent

## GAFTESMVVFLKHDEYNIE (Synthetic short1)
[1]; Example 2, Properdin enhancer C3NeF (4 patients' Ig positive in both tests), 80 μg peptide
  stabilization of the Convertase diminished: 40-80%
[1]; [13]
  percentage of inhibition vs control: significantly higher
[1]; [14]
  percentage of inhibition vs control: No significant difference

## GENQKQCQDLGAFTESMVVFLKHDE (Synthetic pep1C3bExt)
[1]; [13]
  percentage of inhibition vs control: No significant difference
[1]; [14]
  percentage of inhibition vs control: significantly higher
[2]
  % inhibition of the Properdin stabilization capacity: no effect

## Properdin: complement protein Properdin (Calbiochem), stabilizes the C3 convertase
[5]; 800 ng of Properdin
  residual C3bBb lytic site: 60%
[5]; Properdin incubated with peptides' excipient
  % of stabilization of C3 convertase: 40%

## SMVVFLKHDEYNIENLQKTVWD (Synthetic pep1BbExt) [22 aminoacids comprising 5 aa on C3b and 17 from FB]
[3]
  capacity of peptides to bind Properdin: binds
[1]; [13]
  percentage of inhibition vs control: No significant difference
[1]; [14]
  percentage of inhibition vs control: significantly higher
[2]
  dose dependence of inhibition of Properdin stabilization: dose-dependent

## control IgG from healthy donors (antibody)
[6]
  IgG binding, residual (RU): 13 RU
[7]
  IgG binding, residual (RU): 1 RU

B1: short1 (peptide)
peptide: GAFTESMVVFLKHDEYNIE
[8]
  stabilization diminished: 40 to 80%

B2: Pep1C3bExt (peptide)
peptide: GENQKQCQDLGAFTESMVVFLKHDE
[9]
  stabilization diminished: 20 to 40%

B3: Pep1BbExt (peptide)
peptide: SMVVFLKHDEYNIENLQKTVWD
modifications: also: biotinylated when coated in ELISA
[10]
  inhibition of the Properdin stabilization capacity: 80%
[9]
  stabilization diminished: 20 to 40%

B4: Peptide 1 (peptide)
peptide: GQDEENQKQCQDLGAFTESMVVFNIENLQKTVWD
modifications: also: biotinylated when coated in ELISA
[10]
  inhibition of the Properdin stabilization capacity: 80%
[11]
  C3NeF stabilization diminished: 20 to 70%
[9]
  stabilization diminished: 20 to 40%
[12]
  C3NeF stabilization diminished: 20 to 40%
